Reference: article PMC10786891, “Massively parallel profiling of RNA-targeting CRISPR-Cas13d”

Target: T1, EsCas13d, nuclease-dead (Eubacterium siraeum, UniProt B0MS50, R295A;H300A;R849A;H854A)
T1 sequence: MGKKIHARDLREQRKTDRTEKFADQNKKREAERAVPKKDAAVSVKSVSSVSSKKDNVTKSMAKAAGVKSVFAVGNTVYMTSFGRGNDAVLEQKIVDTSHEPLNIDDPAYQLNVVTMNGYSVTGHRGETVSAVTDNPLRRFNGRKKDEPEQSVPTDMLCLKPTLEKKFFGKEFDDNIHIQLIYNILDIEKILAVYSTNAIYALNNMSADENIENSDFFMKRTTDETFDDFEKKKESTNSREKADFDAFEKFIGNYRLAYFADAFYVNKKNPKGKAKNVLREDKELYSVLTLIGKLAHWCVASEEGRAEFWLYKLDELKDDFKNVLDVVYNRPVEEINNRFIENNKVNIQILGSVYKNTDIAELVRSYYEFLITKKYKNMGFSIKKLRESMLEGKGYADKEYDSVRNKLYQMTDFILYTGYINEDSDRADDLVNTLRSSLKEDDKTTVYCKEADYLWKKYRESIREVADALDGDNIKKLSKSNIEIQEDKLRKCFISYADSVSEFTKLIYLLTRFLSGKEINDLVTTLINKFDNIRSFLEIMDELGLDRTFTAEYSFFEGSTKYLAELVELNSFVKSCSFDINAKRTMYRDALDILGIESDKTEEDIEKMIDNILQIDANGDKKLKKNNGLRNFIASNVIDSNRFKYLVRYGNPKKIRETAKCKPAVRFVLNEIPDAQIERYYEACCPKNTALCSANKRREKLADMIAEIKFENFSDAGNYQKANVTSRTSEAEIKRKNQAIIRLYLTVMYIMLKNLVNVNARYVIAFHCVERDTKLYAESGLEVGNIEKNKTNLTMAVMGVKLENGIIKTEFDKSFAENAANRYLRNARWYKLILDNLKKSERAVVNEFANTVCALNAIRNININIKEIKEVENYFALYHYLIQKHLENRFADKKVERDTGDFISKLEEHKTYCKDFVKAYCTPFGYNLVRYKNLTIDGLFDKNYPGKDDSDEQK
Experiment: crRNA (strand 1, pre-loaded); Mg2+; 40 mM Tris-HCl pH 7.5, 150 mM NaCl, 6 mM MgCl2, 1 mM DTT, 0.1% Tween-20, 0.2 mg/ml BSA; 25 C; 10 min per concentration, then washed
Details: tags: His6-TwinStrep-SUMO cleaved; N-terminal SNAP kept (SNAP-Surface 488); label: 3' end held by stalled T7 RNA polymerase

Binder	Kd
target 1 MT 5'PFS ACC 3'PFS UAG (mixed) RNA 1: CACCCGUGCAAAAAUGCAGGGGUCUAAAACUGAGCGGAUAACCUCUCUAUGG RNA 2: GGGAAUGGAUCCACAUCUACGAAUUCACCCCAUAGAGAGGUUAUCCGCUCAUAGAGAUCGGAAGAGCACACGU	~14.5 nM
target 1 MT 5'PFS CCA 3'PFS CGG (mixed) RNA 1: CACCCGUGCAAAAAUGCAGGGGUCUAAAACUGAGCGGAUAACCUCUCUAUGG RNA 2: GGGAAUGGAUCCACAUCUACGAAUUCCCACCAUAGAGAGGUUAUCCGCUCACGGAGAUCGGAAGAGCACACGU	5.05 ± 1.35 nM
target 1 MT 5'PFS AAA 3'PFS CAC (mixed) RNA 1: CACCCGUGCAAAAAUGCAGGGGUCUAAAACUGAGCGGAUAACCUCUCUAUGG RNA 2: GGGAAUGGAUCCACAUCUACGAAUUCAAACCAUAGAGAGGUUAUCCGCUCACACAGAUCGGAAGAGCACACGU	29.5 ± 11.5 nM
target 1 MT 5'PFS UUG 3'PFS CUA (mixed) RNA 1: CACCCGUGCAAAAAUGCAGGGGUCUAAAACUGAGCGGAUAACCUCUCUAUGG RNA 2: GGGAAUGGAUCCACAUCUACGAAUUCUUGCCAUAGAGAGGUUAUCCGCUCACUAAGAUCGGAAGAGCACACGU	45.5 ± 18 nM
target 1 MT 5'PFS GAC 3'PFS UAG (mixed) RNA 1: CACCCGUGCAAAAAUGCAGGGGUCUAAAACUGAGCGGAUAACCUCUCUAUGG RNA 2: GGGAAUGGAUCCACAUCUACGAAUUCGACCCAUAGAGAGGUUAUCCGCUCAUAGAGAUCGGAAGAGCACACGU	27.5 ± 11 nM
target 1 MT 5'PFS UUG 3'PFS CUU (mixed) RNA 1: CACCCGUGCAAAAAUGCAGGGGUCUAAAACUGAGCGGAUAACCUCUCUAUGG RNA 2: GGGAAUGGAUCCACAUCUACGAAUUCUUGCCAUAGAGAGGUUAUCCGCUCACUUAGAUCGGAAGAGCACACGU	14.4 ± 3.55 nM
target 1 MT 5'PFS GGC 3'PFS CCG (mixed) RNA 1: CACCCGUGCAAAAAUGCAGGGGUCUAAAACUGAGCGGAUAACCUCUCUAUGG RNA 2: GGGAAUGGAUCCACAUCUACGAAUUCGGCCCAUAGAGAGGUUAUCCGCUCACCGAGAUCGGAAGAGCACACGU	8.35 ± 1.4 nM
target 1 MT 5'PFS GAC 3'PFS UAU (mixed) RNA 1: CACCCGUGCAAAAAUGCAGGGGUCUAAAACUGAGCGGAUAACCUCUCUAUGG RNA 2: GGGAAUGGAUCCACAUCUACGAAUUCGACCCAUAGAGAGGUUAUCCGCUCAUAUAGAUCGGAAGAGCACACGU	19 ± 6 nM
target 1 MT 5'PFS GUU 3'PFS CGA (mixed) RNA 1: CACCCGUGCAAAAAUGCAGGGGUCUAAAACUGAGCGGAUAACCUCUCUAUGG RNA 2: GGGAAUGGAUCCACAUCUACGAAUUCGUUCCAUAGAGAGGUUAUCCGCUCACGAAGAUCGGAAGAGCACACGU	19.7 ± 4.2 nM
target 1 MT 5'PFS GGC 3'PFS CCA (mixed) RNA 1: CACCCGUGCAAAAAUGCAGGGGUCUAAAACUGAGCGGAUAACCUCUCUAUGG RNA 2: GGGAAUGGAUCCACAUCUACGAAUUCGGCCCAUAGAGAGGUUAUCCGCUCACCAAGAUCGGAAGAGCACACGU	31.5 ± 10.5 nM
target 1 MT 5'PFS GUU 3'PFS CGG (mixed) RNA 1: CACCCGUGCAAAAAUGCAGGGGUCUAAAACUGAGCGGAUAACCUCUCUAUGG RNA 2: GGGAAUGGAUCCACAUCUACGAAUUCGUUCCAUAGAGAGGUUAUCCGCUCACGGAGAUCGGAAGAGCACACGU	67 ± 9 nM
target 1 MT 5'PFS GUU 3'PFS CGU (mixed) RNA 1: CACCCGUGCAAAAAUGCAGGGGUCUAAAACUGAGCGGAUAACCUCUCUAUGG RNA 2: GGGAAUGGAUCCACAUCUACGAAUUCGUUCCAUAGAGAGGUUAUCCGCUCACGUAGAUCGGAAGAGCACACGU	12.3 ± 1.8 nM
target 1 MT 5'PFS GUU 3'PFS CGC (mixed) RNA 1: CACCCGUGCAAAAAUGCAGGGGUCUAAAACUGAGCGGAUAACCUCUCUAUGG RNA 2: GGGAAUGGAUCCACAUCUACGAAUUCGUUCCAUAGAGAGGUUAUCCGCUCACGCAGAUCGGAAGAGCACACGU	19.8 ± 4.5 nM
target 1 MT 5'PFS AAC 3'PFS AAG (mixed) RNA 1: CACCCGUGCAAAAAUGCAGGGGUCUAAAACUGAGCGGAUAACCUCUCUAUGG RNA 2: GGGAAUGGAUCCACAUCUACGAAUUCAACCCAUAGAGAGGUUAUCCGCUCAAAGAGAUCGGAAGAGCACACGU	34.5 ± 15 nM
target 1 MT 5'PFS UUA 3'PFS UAC (mixed) RNA 1: CACCCGUGCAAAAAUGCAGGGGUCUAAAACUGAGCGGAUAACCUCUCUAUGG RNA 2: GGGAAUGGAUCCACAUCUACGAAUUCUUACCAUAGAGAGGUUAUCCGCUCAUACAGAUCGGAAGAGCACACGU	35 ± 7 nM
target 1 insG 3' of 20,insA 3' of 10 (mixed) RNA 1: CACCCGUGCAAAAAUGCAGGGGUCUAAAACUGAGCGGAUAACCUCUCUAUGG RNA 2: GGGAAUGGAUCCACAUCUACGAAUUCGUACCAGUAGAGAGGUUAAUCCGCUCACCGAGAUCGGAAGAGCACACGU	42 ± 8 nM
target 1 MT 5'PFS UUA 3'PFS CUG (mixed) RNA 1: CACCCGUGCAAAAAUGCAGGGGUCUAAAACUGAGCGGAUAACCUCUCUAUGG RNA 2: GGGAAUGGAUCCACAUCUACGAAUUCUUACCAUAGAGAGGUUAUCCGCUCACUGAGAUCGGAAGAGCACACGU	14.9 ± 2.6 nM
target 1 MT 5'PFS UUA 3'PFS UAG (mixed) RNA 1: CACCCGUGCAAAAAUGCAGGGGUCUAAAACUGAGCGGAUAACCUCUCUAUGG RNA 2: GGGAAUGGAUCCACAUCUACGAAUUCUUACCAUAGAGAGGUUAUCCGCUCAUAGAGAUCGGAAGAGCACACGU	27.5 ± 6 nM
target 1 MT 5'PFS CAU 3'PFS CUC (mixed) RNA 1: CACCCGUGCAAAAAUGCAGGGGUCUAAAACUGAGCGGAUAACCUCUCUAUGG RNA 2: GGGAAUGGAUCCACAUCUACGAAUUCCAUCCAUAGAGAGGUUAUCCGCUCACUCAGAUCGGAAGAGCACACGU	~90 nM
target 1 G5U,G13C (mixed) RNA 1: CACCCGUGCAAAAAUGCAGGGGUCUAAAACUGAGCGGAUAACCUCUCUAUGG RNA 2: GGGAAUGGAUCCACAUCUACGAAUUCGUACCAUAGAGACGUUAUCCUCUCACCGAGAUCGGAAGAGCACACGU	39 ± 6 nM
target 1 MT 5'PFS UAG 3'PFS GAG (mixed) RNA 1: CACCCGUGCAAAAAUGCAGGGGUCUAAAACUGAGCGGAUAACCUCUCUAUGG RNA 2: GGGAAUGGAUCCACAUCUACGAAUUCUAGCCAUAGAGAGGUUAUCCGCUCAGAGAGAUCGGAAGAGCACACGU	91 ± 37 nM
target 1 MT 5'PFS GAC 3'PFS UAC (mixed) RNA 1: CACCCGUGCAAAAAUGCAGGGGUCUAAAACUGAGCGGAUAACCUCUCUAUGG RNA 2: GGGAAUGGAUCCACAUCUACGAAUUCGACCCAUAGAGAGGUUAUCCGCUCAUACAGAUCGGAAGAGCACACGU	19 ± 8 nM
target 1 MT 5'PFS GAC 3'PFS UAA (mixed) RNA 1: CACCCGUGCAAAAAUGCAGGGGUCUAAAACUGAGCGGAUAACCUCUCUAUGG RNA 2: GGGAAUGGAUCCACAUCUACGAAUUCGACCCAUAGAGAGGUUAUCCGCUCAUAAAGAUCGGAAGAGCACACGU	17.5 ± 4.5 nM
target 1 MT 5'PFS UUG 3'PFS CUG (mixed) RNA 1: CACCCGUGCAAAAAUGCAGGGGUCUAAAACUGAGCGGAUAACCUCUCUAUGG RNA 2: GGGAAUGGAUCCACAUCUACGAAUUCUUGCCAUAGAGAGGUUAUCCGCUCACUGAGAUCGGAAGAGCACACGU	23.5 ± 5.75 nM
target 1 MT 5'PFS UUA 3'PFS UAA (mixed) RNA 1: CACCCGUGCAAAAAUGCAGGGGUCUAAAACUGAGCGGAUAACCUCUCUAUGG RNA 2: GGGAAUGGAUCCACAUCUACGAAUUCUUACCAUAGAGAGGUUAUCCGCUCAUAAAGAUCGGAAGAGCACACGU	21.5 ± 7 nM
target 1 MT 5'PFS AAC 3'PFS AAC (mixed) RNA 1: CACCCGUGCAAAAAUGCAGGGGUCUAAAACUGAGCGGAUAACCUCUCUAUGG RNA 2: GGGAAUGGAUCCACAUCUACGAAUUCAACCCAUAGAGAGGUUAUCCGCUCAAACAGAUCGGAAGAGCACACGU	84.5 ± 41.5 nM
target 1 MT 5'PFS GCA 3'PFS AGC (mixed) RNA 1: CACCCGUGCAAAAAUGCAGGGGUCUAAAACUGAGCGGAUAACCUCUCUAUGG RNA 2: GGGAAUGGAUCCACAUCUACGAAUUCGCACCAUAGAGAGGUUAUCCGCUCAAGCAGAUCGGAAGAGCACACGU	28.5 ± 14 nM
target 1 MT 5'PFS CAU 3'PFS CUA (mixed) RNA 1: CACCCGUGCAAAAAUGCAGGGGUCUAAAACUGAGCGGAUAACCUCUCUAUGG RNA 2: GGGAAUGGAUCCACAUCUACGAAUUCCAUCCAUAGAGAGGUUAUCCGCUCACUAAGAUCGGAAGAGCACACGU	~110 nM
